In US20180112219:

Assays:
[1] = system: 5' NS-TALEN (artificial (TALE-FokI)); assay: cleavage_in_vitro; details: pair with 3' HT-TALEN; 747 bp PCR template, 30 C
[2] = system: 5' NS-TALEN (in cells) (artificial (TALE-FokI)); assay: cell_activity; details: NS pair in HeLa-tat-III/LTR/d1EGFP cells; 2 of 23 clones mutated

Work on “TCTCTGGTTAGACCAGATCT (double strand) [5' TALE binding target, HIV-1 LTR TAR]” yielded an activity [1] of 42 % cleavage and an activity [2] of 30 % GFP loss.
